For series [1], the system named is HeLa Kyoto. The series is described as follows: solubility in G1/S (NP-40 vs SDS abundance) (log2 ratio); higher = more soluble. To be noted: cell cycle stage: G1/S.
The test system of series [2] is HeLa Kyoto. In words: melting temperature (median over replicates), in situ; higher = more thermally stable.
Series [3] deals with HeLa Kyoto. The series is described as follows: thermal stability score vs G1/S (z-score of summed log2 fold changes over temperatures); higher = more thermally stable than in G1/S.
Series [4] relates to HeLa Kyoto. In words: solubility change mitosis vs G1/S (difference of NP-40 vs SDS log2 ratios) (log2 ratio difference); higher = more soluble in mitosis.
Where [5] appears, read: cell cycle stage: early G1 (4.5 h after nocodazole release).
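Throughout, for melting temperature (median over replicates), in situ: HeLa Kyoto cells synchronized by double thymidine or nocodazole block, proteins quantified by TMT10plex mass spectrometry, three independent biological replicates.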
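Throughout, for solubility change mitosis vs G1/S (difference of NP-40 vs SDS log2 ratios): synchronized HeLa Kyoto cells (double thymidine block for G1/S, nocodazole release for mitosis), protein amounts in NP-40 versus SDS lysates quantified by mass spectrometry, three biological replicates.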
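Throughout, for solubility in G1/S (NP-40 vs SDS abundance): HeLa Kyoto cells arrested at G1/S by double thymidine block, proteins quantified by TMT10plex mass spectrometry in mild NP-40 versus SDS extracts, three biological replicates.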
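Throughout, for thermal stability score vs G1/S (z-score of summed log2 fold changes over temperatures): synchronized HeLa Kyoto cells, proteins quantified by TMT10plex mass spectrometry, three biological replicates, mitosis taken 0.5 h after nocodazole release, G1/S directly after double thymidine block.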

As to “MNPNCARCGKIVYPTEKVNCLDKFWHKACFHCETCKMTLNMKNYKGYEKKPYCNAHYPKQSFTMVADTPENLRLKQQSELQSQVRYKEEFEKNKGKGFSVVADTPELQRIKKTQDQISNIKYHEEFEKSRMGPSGGEGMEPERRDSQDGSSYRRPLEQQQPHHIPTSAPVYQQPQQQPVAQSYGGYKEPAAPVSIQRSAPGGGGKRYRAVYDYSAADEDEVSFQDGDTIVNVQQIDDGWMYGTVERTGDTGMLPANYVEAI [LASP1]”, the “solubility in G1/S (log2)” value in the series on HeLa Kyoto [1] came to 0.0591. Besides, the melting temperature in the series on HeLa Kyoto [2] (cell cycle stage: G1/S) is 58.7 °C; with HeLa Kyoto [2] (cell cycle stage: mitosis), 60.5 °C. Also, the thermal stability score in the series on HeLa Kyoto [3] (setting [5]) is -2.02; in the series on HeLa Kyoto [3] (cell cycle stage: mitosis), -2.68. In the series on HeLa Kyoto [4], the “solubility change mitosis (log2)” value was determined as 0.0867.
On to “MNPSMKQKQEEIKENIKNSSVPRRTLKMIQPSASGSLVGRENELSAGLSKRKHRNDHLTSTTSSPGVIVPESSENKNLGGVTQESFDLMIKENPSSQYWKEVAEKRRKALYEALKENEKLHKEIEQKDNEIARLKKENKELAEVAEHVQYMAELIERLNGEPLDNFESLDNQEFDSEEETVEDSLVEDSEIGTCAEGTVSSSTDAKPCI [GMNN]”, for which, in the series with HeLa Kyoto [1], the “solubility in G1/S (log2)” value is 0.46. The melting temperature amounted to 57.5 °C with HeLa Kyoto [2] (cell cycle stage: G1/S) and 52.7 °C with HeLa Kyoto [2] (cell cycle stage: mitosis). Also, the values for the thermal stability score with HeLa Kyoto [3] (setting [5]) and with HeLa Kyoto [3] (cell cycle stage: mitosis) were -7.44 and -7.77, respectively. In the series on HeLa Kyoto [4], the “solubility change mitosis (log2)” value was -0.0263.
On to “MNPTLILAAFCLGIASATLTFDHSLEAQWTKWKAMHNRLYGMNEEGWRRAVWEKNMKMIELHNQEYREGKHSFTMAMNAFGDMTSEEFRQVMNGFQNRKPRKGKVFQEPLFYEAPRSVDWREKGYVTPVKNQGQCGSCWAFSATGALEGQMFRKTGRLISLSEQNLVDCSGPQGNEGCNGGLMDYAFQYVQDNGGLDSEESYPYEATEESCKYNPKYSVANDTGFVDIPKQEKALMKAVATVGPISVAIDAGHESFLFYKEGIYFEPDCSSEDMDHGVLVVGYGFESTESDNNKYWLVKNSWGEEWGMGGYVKMAKDRRNHCGIASAASYPTV [CTSL]”, for which, in the series with HeLa Kyoto [1], the “solubility in G1/S (log2)” value was -0.176. Further, the values for the melting temperature in the series on HeLa Kyoto [2] (cell cycle stage: G1/S) and in the series on HeLa Kyoto [2] (cell cycle stage: mitosis) were 53.9 °C and 55 °C, respectively. Also, the thermal stability score in the series on HeLa Kyoto [3] (setting [5]) worked out at 1.47; in the series on HeLa Kyoto [3] (cell cycle stage: mitosis), 1.22. The “solubility change mitosis (log2)” value with HeLa Kyoto [4] was found to be 0.0996.
In the case of “MNRFRVSKFRHTEARPPRRESWISDIRAGTAPSCRNHIKSSCSLIAFNSDRPGVLGIVPLQGQGEDKRRVAHLGCHSDLVTDLDFSPFDDFLLATGSADRTVKLWRLPGPGQALPSAPGVVLGPEDLPVEVLQFHPTSDGILVSAAGTTVKVWDAAKQQPLTELAAHGDLVQSAVWSRDGALVGTACKDKQLRIFDPRTKPRASQSTQAHENSRDSRLAWMGTWEHLVSTGFNQMREREVKLWDTRFFSSALASLTLDTSLGCLVPLLDPDSGLLVLAGKGERQLYCYEVVPQQPALSPVTQCVLESVLRGAALVPRQALAVMSCEVLRVLQLSDTAIVPIGYHVPRKAVEFHEDLFPDTAGCVPATDPHSWWAGDNQQVQKVSLNPACRPHPSFTSCLVPPAEPLPDTAQPAVMETPVGDADASEGFSSPPSSLTSPSTPSSLGPSLSSTSGIGTSPSLRSLQSLLGPSSKFRHAQGTVLHRDSHITNLKGLNLTTPGESDGFCANKLRVAVPLLSSGGQVAVLELRKPGRLPDTALPTLQNGAAVTDLAWDPFDPHRLAVAGEDARIRLWRVPAEGLEEVLTTPETVLTGHTEKICSLRFHPLAANVLASSSYDLTVRIWDLQAGADRLKLQGHQDQIFSLAWSPDGQQLATVCKDGRVRVYRPRSGPEPLQEGPGPKGGRGARIVWVCDGRCLLVSGFDSQSERQLLLYEAEALAGGPLAVLGLDVAPSTLLPSYDPDTGLVLLTGKGDTRVFLYELLPESPFFLECNSFTSPDPHKGLVLLPKTECDVREVELMRCLRLRQSSLEPVAFRLPRVRKEFFQDDVFPDTAVIWEPVLSAEAWLQGANGQPWLLSLQPPDMSPVSQAPREAPARRAPSSAQYLEEKSDQQKKEELLNAMVAKLGNREDPLPQDSFEGVDEDEWD [CORO7]”, the “solubility in G1/S (log2)” value in the series with HeLa Kyoto [1] is -0.00965. Besides, the results for the melting temperature with HeLa Kyoto [2] (cell cycle stage: G1/S) and in the series on HeLa Kyoto [2] (cell cycle stage: mitosis) were 51 °C and 51.9 °C, respectively. Further, the thermal stability score amounted to 0.406 with HeLa Kyoto [3] (setting [5]) and 0.778 with HeLa Kyoto [3] (cell cycle stage: mitosis). Moreover, the “solubility change mitosis (log2)” value in the series on HeLa Kyoto [4] was 0.159.
Turning to “MNSPGGRGKKKGSGGASNPVPPRPPPPCLAPAPPAAGPAPPPESPHKRNLYYFSYPLFVGFALLRLVAFHLGLLFVWLCQRFSRALMAAKRSSGAAPAPASASAPAPVPGGEAERVRVFHKQAFEYISIALRIDEDEKAGQKEQAVEWYKKGIEELEKGIAVIVTGQGEQCERARRLQAKMMTNLVMAKDRLQLLEKMQPVLPFSKSQTDVYNDSTNLACRNGHLQSESGAVPKRKDPLTHTSNSLPRSKTVMKTGSAGLSGHHRAPSYSGLSMVSGVKQGSGPAPTTHKGTPKTNRTNKPSTPTTATRKKKDLKNFRNVDSNLANLIMNEIVDNGTAVKFDDIAGQDLAKQALQEIVILPSLRPELFTGLRAPARGLLLFGPPGNGKTMLAKAVAAESNATFFNISAASLTSKYVGEGEKLVRALFAVARELQPSIIFIDEVDSLLCERREGEHDASRRLKTEFLIEFDGVQSAGDDRVLVMGATNRPQELDEAVLRRFIKRVYVSLPNEETRLLLLKNLLCKQGSPLTQKELAQLARMTDGYSGSDLTALAKDAALGPIRELKPEQVKNMSASEMRNIRLSDFTESLKKIKRSVSPQTLEAYIRWNKDFGDTTV [SPAST]”, the “solubility in G1/S (log2)” value in the series on HeLa Kyoto [1] turned out to be 0.427. Moreover, the melting temperature in the series with HeLa Kyoto [2] (cell cycle stage: G1/S) amounted to 48.8 °C; with HeLa Kyoto [2] (cell cycle stage: mitosis) it was 49.3 °C. Moreover, the thermal stability score with HeLa Kyoto [3] (setting [5]) was found to be 0.0551; with HeLa Kyoto [3] (cell cycle stage: mitosis), 1.16. For the same sequence, the “solubility change mitosis (log2)” value with HeLa Kyoto [4] was -0.012.

Values taken from the supplement of paper PMC5998384.
